Results on one protein are retold here after patent publication US6998116 (Genentech, dated 2006).

The data set deals with the molecule itself. The data set can be described thus: self-association: chemical crosslinking (sulfo-NHS/EDC), SDS-PAGE and silver staining. On the procedure: Minor 48 kDa and 66 kDa bands were also observed, and probably represent soluble Apo-2 ligand homodimers and homotrimers. Chemical crosslinking of the purified $His10$-Apo-2 ligand by incubation with sulfo-NHS (5 mM) (Pierce Chemical) and EDC (Pierce Chemical) at 25 mM and 50 mM (FIG. 1D, lanes 1 and 2, respectively), shifted the protein into the 66 kDa band primarily.

B1: His10-Apo-2 ligand (purified soluble Apo-2 ligand residues 114-281 with N-terminal Met Gly His10 tag and enterokinase site) (ligand)
chain: MGHHHHHHHHHHSSGHIDDDDKHMVRERGPQRVAAHITGTRGRSNTLSSPNSKNEKALGRKINSWESSRSGHSFLSNLHLRNGELVIHEKGFYYIYSQTYFRFQEEIKENTKNDKQMVQYIYKYTSYPDPILLMKSARNSCWSKDAEYGLYSIYQGGIFELKENDRIFVSVTNEHLIDMDHEASFFGAFLVG
notes: Made in baculovirus-infected Sf9 cells, purified on Ni2+-NTA; also called His10-Apo-2 ECD
Take B1: the binding result is “binds”.
